Among the data in US20200109197A1 are kappa-positive faction of beads after one hour incubation with the protease, 37° C. and kappa-positive faction of beads after one hour incubation with the protease, room temperature values, retold here.

The target in the test is recombinant anti-human CD3 antibody with TEV cleavage site in the upper hinge region of mouse IgG1 (mouse) [IgG part: P01868]. In words: cell-based or functional assay.

On to “AcTEV™ Protease (from UniProt P04517 2038-2279) (enzyme)”, for which the kappa-positive faction of beads after one hour incubation with the protease, 37° C. amounted to 7% and the kappa-positive faction of beads after one hour incubation with the protease, room temperature turned out to be 19%.
